We go through two proteins from publication PMC12603323.

One data set is described as follows: WB, CRC cells. The note with it: glycan lost; control: SPOP-WT.
Data set [1] is described as follows: HA-Ub, MYC-β-catenin IP, 293T. To be noted: glycan lost; control: SPOP-WT.
The nature of data set [2]: HA-Ub co-transfection, IP, 293T. To be noted: glycan lost; control: SPOP-WT.
The nature of the next data set: WB of SPOP, HCT116. To be noted: glycan lost; control: untreated cells.

B1: SPOP (Speckle-type POZ protein): S58/59 A (protein)
parent chain: MSRVPSPPPPAEMSSGPVAESWCYTQIKVVKFSYMWTINNFSFCREEMGEVIKSSTFSSGANDKLKWCLRVNPKGLDEESKDYLSLYLLLVSCPKSEVRAKFKFSILNAKGEETKAMESQRAYRFVQGKDWGFKKFIRRDFLLDEANGLLPDDKLTLFCEVSVVQDSVNISGQNTMNMVKVPECRLADELGGLWENSRFTDCCLCVAGQEFQAHKAILAARSPVFSAMFEHEMEESKKNRVEINDVEPEVFKEMMCFIYTGKAPNLDKMADDLLAAADKYALERLKVMCEDALCSNLSVENAAEILILADLHSADQLKTQAVDFINYHASDVLETSGWKSMVVSHPHLVAEAYRSLASAQCPFLGPPRKRLKQS
In the case of B1, the “other: substrate β-catenin protein level” value in the data set “WB, CRC cells” is “decreases”. Also, the “other: substrate β-catenin ubiquitination” value in data set [1] is “increases”. For the same protein, the “other: ubiquitination of SPOP” value in data set [2] is “increases”.

B2: SPOP (Speckle-type POZ protein): OSMI-1 (protein)
parent chain: B1 parent chain
With B2, the expression_or_secretion entry in “WB of SPOP, HCT116” is “increases”.
